Laboratory results as given in patent US20250043302A1, “MUTATED HYDROXYPHENYLPYRUVATE DIOXYGENASE POLYPEPTIDE, AND CODING GENE AND USE THEREOF” (BEIJING DABEINONG BIOTECHNOLOGY CO., LTD., priority 2021, published 2025).

Columns and labels:
[1] = system: Arabidopsis thaliana T1 plants; experiment: Topramezone tolerance of transgenic Arabidopsis thaliana T1 plants (spray, bleached leaf area grade, damage score); assay type: in vivo; settings: for Classification and statistics of the grade of pesticide damage: Grade 0 / Classification and statistics of the grade of pesticide damage: Grade 1 / Classification and statistics of the grade of pesticide damage: Grade 2 / Classification and statistics of the grade of pesticide damage: Grade 3: number of plants; for Grade 0 (classification and statistics of the grade of pesticide damage; number of plants) / Grade 1 (classification and statistics of the grade of pesticide damage; number of plants) / Grade 2 (classification and statistics of the grade of pesticide damage; number of plants) / Grade 3 (classification and statistics of the grade of pesticide damage; number of plants): 16 plants
Description: T1 transformants were initially selected from the untransformed seeds using a glufosinate selection scheme. The Arabidopsis thaliana T1 plants (AsHPPD-02) into which the AsHPPD-02 nucleotide sequence was introduced, the Arabidopsis thaliana T1 plants (AsHPPDm-F372A-02) into which the AsHPPDm-F372A-02 nucleotide sequence was introduced, the Arabidopsis thaliana T1 plants (AsHPPDm-F383W-02) into which the AsHPPDm-F383W-02 nucleotide sequence was introduced, the Arabidopsis thaliana T1 plants (AsHPPDm-F372A-F383W-02) into which the AsHPPDm-F372A-F383W-02 nucleotide sequence was introduced, the Arabidopsis thaliana T1 plants (DBN11726N) into which the control recombinant expression vector DBN11726N was introduced, and the wild-type Arabidopsis thaliana plants (CK) (18 days after sowing) were sprayed respectively with topramezone at three concentrations (100 g ai/ha (four-fold field concentration, 4×), 200 g ai/ha (eight-fold field concentration, 8×), and 0 g ai/ha (water, 0×)), isoxaflutole at three concentrations (140 g ai/ha (two-fold field concentration, 2×), 280 g ai/ha (four-fold field concentration, 4×), and 0 g ai/ha (water, 0×)), and mesotrione at three concentrations (210 g ai/ha (two-fold field concentration, […]), 420 g ai/ha (four-fold field concentration, 4×), and 0 g ai/ha (water, 0×)), to determine the tolerance of Arabidopsis thaliana to the herbicides. The degree of damage caused by the herbicide was measured for each plant according to the proportion of bleached leaf area (the proportion of bleached leaf area=bleached leaf area/total leaf area×100%) 7 days after spraying (7 DAT): the case where there is basically no bleached phenotype is defined as grade 0, the case where the proportion of bleached leaf area is less than 50% is defined as grade 1, the case where the proportion of bleached leaf area is more than 50% is defined as grade 2, and the case where the proportion of bleached leaf area is 100% grade is defined as grade 3.
According to the method as described above in point 6 of Example 1, the aforementioned Arabidopsis thaliana T1 plants and wild-type Arabidopsis thaliana plants (CK) (18 days after sowing) were sprayed respectively with topramezone at three concentrations (25 g ai/ha (one-fold field concentration, 1×). 100 g ai/ha (four-fold field concentration, 4×), and 0 g ai/ha (water, 0×)), isoxaflutole at three concentrations (35 g ai/ha (half-fold field concentration, 0.5×). 70 g ai/ha (one-fold field concentration, 1×), and 0 g ai/ha (water, 0×)), and mesotrione at three concentrations (52.5 g ai/ha (half-fold field concentration, 0.5×), 105 g ai/ha (one-fold field concentration, 1×), and 0 g ai/ha (water, 0×)) to detect the tolerance of Arabidopsis thaliana to the herbicides.
According to the method as described above in point 6 of Example 1, the aforementioned Arabidopsis thaliana T1 plants and wild-type Arabidopsis thaliana plants (CK) (18 days after sowing) were sprayed with topramezone at three different concentrations (i.e., 100 g ai/ha (four-fold field concentration, 4×), 200 g ai/ha (eight-fold field concentration, 8×) and 0 g ai/ha (water, 0×)), isoxaflutole at three different concentrations (i.e., 140 g ai/ha (two-fold field concentration, 2×), 280 g ai/ha (four-fold field concentration, 4×) and 0 g ai/ha (water, 0×)), and mesotrione at three different concentrations (i.e., 210 g ai/ha (two-fold field concentration, 2×), 420 g ai/ha (four-fold field concentration, 4×) and 0 g ai/ha (water, 0×)) respectively to detect the herbicide tolerance of Arabidopsis thaliana. […]

[2] = system: Arabidopsis thaliana T1 plants; experiment: Isoxaflutole tolerance of transgenic Arabidopsis thaliana T1 plants (spray, bleached leaf area grade, damage score); assay type: in vivo;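 as to Scores: Weighted damage index from 0 to 100 where higher means more damage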
How it was run: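 Damage was assessed by bleaching grade (0 none; 1 <50%; 2 >50%; 3 100% of leaf area) one week after spraying. Sprays on 18-day-old T1 and wild-type plants used field-rate multiples: topramezone 25–200, isoxaflutole 35–280, mesotrione 52.5–420 g ai/ha.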

[3] = topramezone 100 g ai/ha (4×), 7 DAT, Table 1
[4] = topramezone 200 g ai/ha (8×), 7 DAT, Table 1
[5] = topramezone 100 g ai/ha (4x field concentration), Arabidopsis thaliana T1 plants
[6] = topramezone 200 g ai/ha (8x field concentration), Arabidopsis thaliana T1 plants
[7] = isoxaflutole 140 g ai/ha (2x field concentration), Arabidopsis thaliana T1 plants
[8] = isoxaflutole 140 g ai/ha (2x field concentration), Arabidopsis thaliana T1 plants, 16 plants

B1: AsHPPDm-F383W-02: nucleotide sequence encoding Avena sativa HPPD with F383W; vector DBN11729 (nucleic acid)
DNA: ATGCCACCTACTCCAGCTACAGCTACTGGTGCTGCTGCTGCTGCCGTTACTCCTGAGCACGCTGCCAGGTCATTCCCCAGGGTGGTTCGCGTGAACCCCAGATCTGATAGGTTCCCAGTTCTGAGCTTCCACCATGTTGAGCTGTGGTGCGCTGATGCTGCTTCTGCTGCTGGCAGGTTCTCTTTCGCTCTTGGTGCTCCACTCGCTGCTAGATCTGATCTGTCTACAGGAAATAGCGCTCATGCCTCACTCCTGCTTCGCTCAGGTGCTTTGGCCTTCCTCTTCACCGCTCCATATGCTCCCCCACCTCAGGAGGCTGCTACTGCTGCTGCTACAGCCTCCATTCCAAGCTTCTCAGCTGATGCCGCTAGAACCTTCGCTGCTGCTCATGGACTTGCCGTGAGGTCTGTTGGTGTTCGCGTGGCTGATGCTGCTGAGGCTTTCAGAGTTTCCGTTGCCGGCGGAGCTAGGCCAGCTTTCGCTCCTGCTGATTTGGGACATGGTTTCGGCCTGGCTGAGGTTGAGCTTTACGGTGACGTGGTTCTCCGCTTCGTGTCTTACCCAGATGAGACTGACCTGCCTTTCCTTCCCGGCTTCGAGAGAGTTTCCTCTCCTGGTGCCGTGGATTACGGCCTGACAAGGTTCGACCACGTGGTTGGAAACGTTCCCGAGATGGCTCCAGTGATCGATTACATGAAGGGCTTCCTTGGATTCCATGAGTTCGCCGAGTTCACTGCTGAGGACGTGGGAACCACTGAGTCCGGTTTGAACTCTGTGGTTCTCGCCAACAATTCTGAGGCTGTTTTGCTCCCTCTGAATGAGCCTGTGCATGGAACCAAGAGGAGAAGCCAGATTCAAACTTACCTGGAGTACCACGGTGGCCCTGGAGTTCAGCATATCGCCCTTGCTTCTAATGATGTGTTGCGCACACTCAGAGAGATGCGCGCCAGAACCCCCATGGGAGGTTTCGAGTTCATGGCCCCACCACAGGCTAAGTACTACGAGGGCGTTAGAAGGATTGCTGGAGACGTGTTGAGCGAGGAGCAGATCAAGGAGTGCCAAGAGCTGGGTGTTCTTGTGGATAGGGATGACCAGGGCGTTCTGCTTCAAATTTTCACTAAGCCAGTGGGCGACCGCCCTACATTCTGGCTTGAGATGATTCAAAGAATCGGCTGCATGGAGAAGGATGAGGTTGGACAGGAGTACCAAAAGGGCGGATGCGGTGGCTTCGGAAAGGGTAACTTCAGCGAGTTGTTCAAGTCAATCGAGGACTACGAGAAGAGCCTCGAGGTGAAGCAGTCAGTGGTTGCCCAAAAGTCCTGA
modifications: AsHPPDm-F383W-02 Nucleotide Sequence
notes: vector DBN11729
Classification and statistics of the grade of pesticide damage: Grade 0 [1, 3]: 16
Classification and statistics of the grade of pesticide damage: Grade 1 [1, 3]: 0
Classification and statistics of the grade of pesticide damage: Grade 2 [1, 3]: 0
Classification and statistics of the grade of pesticide damage: Grade 3 [1, 3]: 0
Classification and statistics of the grade of pesticide damage: Grade 0 [1, 4]: 16
Classification and statistics of the grade of pesticide damage: Grade 1 [1, 4]: 0
Classification and statistics of the grade of pesticide damage: Grade 2 [1, 4]: 0
Classification and statistics of the grade of pesticide damage: Grade 3 [1, 4]: 0
Scores ([1]; pesticide damage score 0-100, topramezone 100 g ai/ha (4×), 7 DAT, Table 1): 0
Scores ([1]; pesticide damage score 0-100, topramezone 200 g ai/ha (8×), 7 DAT, Table 1): 0
Resistance evaluation [1, 5]: Highly resistant
Scores [1, 5]: 0
Grade 0 (classification and statistics of the grade of pesticide damage; number of plants) [1, 5]: 16
Grade 1 (classification and statistics of the grade of pesticide damage; number of plants) [1, 5]: 0
Grade 2 (classification and statistics of the grade of pesticide damage; number of plants) [1, 5]: 0
Grade 3 (classification and statistics of the grade of pesticide damage; number of plants) [1, 5]: 0
Resistance evaluation [1, 3]: highly resistant (highly resistant plants (scores 0-15))
Resistance evaluation [1, 6]: Highly resistant
Scores [1, 6]: 0
Grade 0 (classification and statistics of the grade of pesticide damage; number of plants) [1, 6]: 16
Grade 1 (classification and statistics of the grade of pesticide damage; number of plants) [1, 6]: 0
Grade 2 (classification and statistics of the grade of pesticide damage; number of plants) [1, 6]: 0
Grade 3 (classification and statistics of the grade of pesticide damage; number of plants) [1, 6]: 0
Resistance evaluation [1, 4]: highly resistant (highly resistant plants (scores 0-15))
tolerance to topramezone (resistance class) ([1]; topramezone at four-fold or eight-fold field concentration): highly-resistant
tolerance to isoxaflutole (in words) ([2]; in vivo): different degrees of tolerance
Resistance evaluation [2, 7]: Moderately
Scores [2, 7]: 21
Grade 0 (classification and statistics of the grade of pesticide damage; number of plants) [2, 8]: 6
Grade 1 (classification and statistics of the grade of pesticide damage; number of plants) [2, 8]: 10
Grade 2 (classification and statistics of the grade of pesticide damage; number of plants) [2, 8]: 0
Grade 3 (classification and statistics of the grade of pesticide damage; number of plants) [2, 8]: 0
Resistance evaluation ([2]; isoxaflutole 140 g ai/ha (2×), 7 DAT, Table 2): moderately
